The values below come from PMC3408419 (Molecular Biology of the Cell, 2012).

The target in experiment [1] is MBP-Sec16-mOrange (S. cerevisiae) (UniProt P48415). As to the kind of experiment: single-molecule photobleaching.
Another experiment has as its target Sec23/24 complex (S. cerevisiae, UniProt P15303;P40482). The experiment in a line: liposome flotation.

“And” between values parts separate entries of the source, which are not always exact repeats. Equal values may be shown once.

Chain of Sec23/24 complex (P15303 whole entry, chain 1 of 2): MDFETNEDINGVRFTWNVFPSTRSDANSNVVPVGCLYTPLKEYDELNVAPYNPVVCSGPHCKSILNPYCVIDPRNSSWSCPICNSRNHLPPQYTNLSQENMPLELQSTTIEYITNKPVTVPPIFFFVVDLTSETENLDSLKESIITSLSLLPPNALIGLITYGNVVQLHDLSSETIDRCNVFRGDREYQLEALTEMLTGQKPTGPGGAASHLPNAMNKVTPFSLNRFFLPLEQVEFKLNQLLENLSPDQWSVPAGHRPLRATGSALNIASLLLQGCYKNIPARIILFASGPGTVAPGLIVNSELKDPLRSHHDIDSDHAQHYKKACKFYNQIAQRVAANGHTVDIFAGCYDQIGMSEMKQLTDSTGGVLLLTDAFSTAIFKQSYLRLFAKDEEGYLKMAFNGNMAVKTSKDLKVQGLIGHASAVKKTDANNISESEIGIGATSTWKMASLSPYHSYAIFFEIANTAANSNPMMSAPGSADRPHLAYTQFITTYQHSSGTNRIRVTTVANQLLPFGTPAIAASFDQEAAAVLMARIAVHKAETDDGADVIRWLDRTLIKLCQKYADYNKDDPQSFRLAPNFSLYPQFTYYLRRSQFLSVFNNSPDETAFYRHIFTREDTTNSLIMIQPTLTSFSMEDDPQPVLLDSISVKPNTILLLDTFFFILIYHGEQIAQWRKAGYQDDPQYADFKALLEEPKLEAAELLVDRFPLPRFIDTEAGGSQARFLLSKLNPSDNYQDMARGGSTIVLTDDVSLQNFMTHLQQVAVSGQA
Chain of Sec23/24 complex (P40482 whole entry, chain 2 of 2): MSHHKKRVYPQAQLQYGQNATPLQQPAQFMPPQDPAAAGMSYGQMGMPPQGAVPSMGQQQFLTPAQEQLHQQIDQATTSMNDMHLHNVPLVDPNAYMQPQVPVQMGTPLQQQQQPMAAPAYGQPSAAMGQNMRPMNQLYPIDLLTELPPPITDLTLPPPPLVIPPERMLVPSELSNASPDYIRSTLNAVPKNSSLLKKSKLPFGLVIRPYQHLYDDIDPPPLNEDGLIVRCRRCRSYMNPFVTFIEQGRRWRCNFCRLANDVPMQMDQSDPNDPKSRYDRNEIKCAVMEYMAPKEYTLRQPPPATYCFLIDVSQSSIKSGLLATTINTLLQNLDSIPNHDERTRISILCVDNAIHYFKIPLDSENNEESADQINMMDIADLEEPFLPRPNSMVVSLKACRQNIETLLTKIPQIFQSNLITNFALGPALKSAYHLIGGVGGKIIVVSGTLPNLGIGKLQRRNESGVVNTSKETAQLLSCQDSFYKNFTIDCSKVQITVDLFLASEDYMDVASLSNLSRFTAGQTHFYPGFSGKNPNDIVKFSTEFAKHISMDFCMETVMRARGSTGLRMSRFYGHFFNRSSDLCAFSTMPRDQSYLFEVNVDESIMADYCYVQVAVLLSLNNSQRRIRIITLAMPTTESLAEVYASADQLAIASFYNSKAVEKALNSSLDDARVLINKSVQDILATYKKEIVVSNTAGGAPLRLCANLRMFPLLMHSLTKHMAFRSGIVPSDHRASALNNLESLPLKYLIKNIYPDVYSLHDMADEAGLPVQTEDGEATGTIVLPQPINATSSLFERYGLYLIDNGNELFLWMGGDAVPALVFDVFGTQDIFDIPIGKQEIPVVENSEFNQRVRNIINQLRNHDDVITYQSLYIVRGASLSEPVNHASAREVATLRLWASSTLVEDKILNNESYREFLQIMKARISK

With MBP-Sec16-mOrange, P48415 1-2195, the stoichiometry N (as a rule, a count of units in the complex or per binding partner) in experiment [1] is 4 and 6.

B1: Sec13/31 complex (complex)
chain 1: MVVIANAHNELIHDAVLDYYGKRLATCSSDKTIKIFEVEGETHKLIDTLTGHEGPVWRVDWAHPKFGTILASCSYDGKVLIWKEENGRWSQIAVHAVHSASVNSVQWAPHEYGPLLLVASSDGKVSVVEFKENGTTSPIIIDAHAIGVNSASWAPATIEEDGEHNGTKESRKFVTGGADNLVKIWKYNSDAQTYVLESTLEGHSDWVRDVAWSPTVLLRSYLASVSQDRTCIIWTQDNEQGPWKKTLLKEEKFPDVLWRASWSLSGNVLALSGGDNKVTLWKENLEGKWEPAGEVHQ
chain 2: MVKLAEFSRTATFAWSHDKIPLLVSGTVSGTVDANFSTDSSLELWSLLAADSEKPIASLQVDSKFNDLDWSHNNKIIAGALDNGSLELYSTNEANNAINSMARFSNHSSSVKTVKFNAKQDNVLASGGNNGEIFIWDMNKCTESPSNYTPLTPGQSMSSVDEVISLAWNQSLAHVFASAGSSNFASIWDLKAKKEVIHLSYTSPNSGIKQQLSVVEWHPKNSTRVATATGSDNDPSILIWDLRNANTPLQTLNQGHQKGILSLDWCHQDEHLLLSSGRDNTVLLWNPESAEQLSQFPARGNWCFKTKFAPEAPDLFACASFDNKIEVQTLQNLTNTLDEQETETKQQESETDFWNNVSREESKEKPTVFHLQAPTWYGEPSPAAHWAFGGKLVQITPDGKGVSITNPKISGLESNTTLSEALKTKDFKPLINQRLVKVIDDVNEEDWNLLEKLSMDGTEEFLKEALAFDNDESDAQDDANNEKEDDGEEFFQQIETNFQPEGDFSLSGNIEQTISKNLVSGNIKSAVKNSLENDLLMEAMVIALDSNNERLKESVKNAYFAKYGSKSSLSRILYSISKREVDDLVENLDVSQWKFISKAIQNLYPNDIAQRNEMLIKLGDRLKENGHRQDSLTLYLAAGSLDKVASIWLSEFPDLEDKLKKDNKTIYEAHSECLTEFIERFTVFSNFINGSSTINNEQLIAKFLEFINLTTSTGNFELATEFLNSLPSDNEEVKTEKARVLIASGKSLPAQNPATATTSKAKYTNAKTNKNVPVLPTPGMPSTTSIPSMQAPFYGMTPGASANALPPKPYVPATTTSAPVHTEGKYAPPSQPSMASPFVNKTNSSTRLNSFAPPPNPYATATVPATNVSTTSIPQNTFAPIQPGMPIMGDYNAQSSSIPSQPPINAVSGQTPHLNRKANDGWNDLPLKVKEKPSRAKAVSVAPPNILSTPTPLNGIPANAASTMPPPPLSRAPSSVSMVSPPPLHKNSRVPSLVATSESPRASISNPYAPPQSSQQFPIGTISTANQTSNTAQVASSNPYAPPPQQRVATPLSGGVPPAPLPKASNPYAPTATTQPNGSSYPPTGPYTNNHTMTSPPPVFNKPPTGPPPISMKKRSNKLASIEQNPSQGATYPPTLSSSASPLQPSQPPTLASQVNTSAENVSHEIPADQQPIVDFLKEELARVTPLTPKEYSKQLKDCDKRLKILFYHLEKQDLLTQPTIDCLHDLVALMKEKKYKEAMVIHANIATNHAQEGGNWLTGVKRLIGIAEATLN
For the molecule B1, the binding result with Sec23/24 complex is reported as “binds”.
